Target: T1, 35S-labelled luciferase (UniProt P08659 1-550 = luciferase, 35S label (in-vitro-translated))
T1 construct: Negative control of the pull-down; also called luciferase (about 61 kDa)
Experiment: GST pull-down, 35S-labelled luciferase

T1 sequence (P08659 whole entry): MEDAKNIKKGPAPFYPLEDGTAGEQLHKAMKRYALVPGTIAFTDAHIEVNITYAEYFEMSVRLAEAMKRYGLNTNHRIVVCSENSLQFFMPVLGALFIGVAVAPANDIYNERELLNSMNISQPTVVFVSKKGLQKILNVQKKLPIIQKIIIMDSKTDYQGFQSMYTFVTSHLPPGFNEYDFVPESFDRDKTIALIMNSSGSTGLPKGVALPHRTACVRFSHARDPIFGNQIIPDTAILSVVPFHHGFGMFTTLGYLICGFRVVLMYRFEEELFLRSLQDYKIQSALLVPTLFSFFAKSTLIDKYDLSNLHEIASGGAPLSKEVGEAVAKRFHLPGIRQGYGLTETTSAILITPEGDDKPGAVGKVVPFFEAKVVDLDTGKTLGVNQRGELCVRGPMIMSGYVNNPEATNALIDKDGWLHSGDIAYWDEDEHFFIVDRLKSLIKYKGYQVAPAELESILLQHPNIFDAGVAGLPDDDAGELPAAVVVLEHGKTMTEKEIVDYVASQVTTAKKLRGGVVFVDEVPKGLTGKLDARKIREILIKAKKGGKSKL

B1: GST-TWEAK protein (ligand, UniProt O43508 136-249, looked up)
chain: ARINSSSPLRYNRQIGEFIVTRAGLYYLYCQVHFDEGKAVYLKLDLLVDGVLALRCLEEFSATAASSLGPQLRLCQVSGLLALRPGSSLRIRTLPWAHLKAAPFLTYFGLFQVH
notes: also called GST-TWEAK fusion protein; not shown: glutathione S-transferase (GST) tag
binding result: no binding
